Assays:
[1] = biological target: T1, Arp2/3 complex (bovine brain) (bovine, UniProt P61157 1-418; A7MB62 1-394; Q58CQ2 1-372; Q3MHR7 1-300; Q3T035 1-178; Q148J6 …); experiment: ITC; ATP
[2] = biological target: T1, Arp2/3 complex (bovine brain); experiment: ITC; ATP; high-affinity site (Kd1)
[3] = biological target: T1, Arp2/3 complex (bovine brain); experiment: ITC; ATP; second, low-affinity site (Kd2)

B1: Arpin_CA (Arpin residues S194-D226) (domain or fragment)
chain: SWTDNIMAQKSSKGAAAEIREQGDGAEDEEWDD
Binder B1 has a Kd [1] of 1710 nM.

B2: Hybrid_WH2_C-helix (N-WASP WH2 domain and C-helix with linker and A domain of Arpin) (other)
chain: PVSCSGRDALLDQIRQGIQLKSVADGQESTPPTPAPTSGIVGALMEVMQKRSKAIAAAEIREQGDGAEDEEWDD
B2 was tested, and the Kd [2] was 36.7 nM and the Kd [3] was 826 nM.
